Laboratory results published in the RNAGym collection of RNA variant scans (doi:10.7554/elife.90254).

B1: LINE1-mini (parent)
chain: GGCAGAGCUCAACACAGCGUGGCAAAGUGGCUGUGGCUAGACUGCC

Variants of: B1
Assay: self-cleavage, relative activity (ratio to wild type); higher = more cleavage; in vitro, sequencing; the parent is a self-cleaving ribozyme

| Variant | self-cleavage |
| --- | --- |
| GGCAGAGCUCCACACAGCGUGGCAAAGUGGCUGUGCCUAGACUGCC [A11C G36C] | 0.03 |
| GGCAGAGCUCAACUCAGCGUGGCAAAGUGGCUGUGGCUAGACUACC [A14U G44A] | 0.13 |
| GGAAGAGCUCAACACAGCGUGGCAAAGUGGCUGUGUCUAGACUGCC [C3A G36U] | 0.38 |
| GGCAGACCUCAACACAGCGUGGGAAAGUGGCUGUGGCUAGACUGCC [G7C C23G] | 0.1 |
| GGCAGAGCUCAACACAGCGUGGCAAAGUGGCAGUGGCUAGACUGCC [U32A] | 0.1 |
| GGCAGAGCUCAACACAGUGUGGCAAAGUGGCUCUGGCUAGACUGCC [C18U G33C] | 0.04 |
| GGCCGAGCUCAACACAGCGUGGCAAAAUGGCUGUGGCUAGACUGCC [A4C G27A] | 0.17 |
| GGCAGAGCUGAACACAGCGUGGCAAAGUGGCAGUGGCUAGACUGCC [C10G U32A] | 0.02 |
| GGCAGAGCUCAACACAGCGUGGCAAAGUGGCUGUGACUAGACUGAC [G36A C45A] | 0.14 |
| GGCAGAGCUCAACACAGCGUGGGAAAGUGGCUGUGCCUAGACUGCC [C23G G36C] | 0.11 |
| GGCACAGCUCAACUCAGCGUGGCAAAGUGGCUGUGGCUAGACUGCC [G5C A14U] | 0.06 |
| GGCAUAGCUCAACACUGCGUGGCAAAGUGGCUGUGGCUAGACUGCC [G5U A16U] | 0.06 |
| GGCACAGCUGAACACAGCGUGGCAAAGUGGCUGUGGCUAGACUGCC [G5C C10G] | 0.02 |
| GGCAGAGCUCAACACACCGUGGCAAAGUGGCUUUGGCUAGACUGCC [G17C G33U] | 0.06 |
| GGCAGAGCUCAACACGGAGUGGCAAAGUGGCUGUGGCUAGACUGCC [A16G C18A] | 0.16 |
| GGCAGAGCUCAACACAGCGUGGCAAAGUGGCUGUGCCAAGACUGCC [G36C U38A] | 0.06 |
| GGCAGAGCACAACACAGCGUGGCAAAGUGGCUCUGGCUAGACUGCC [U9A G33C] | 0.07 |
| GGCAGACCUCAACACAGCGUGGCAAAGUGGCUGUGGCUGGACUGCC [G7C A39G] | 0.08 |
| GGCAGUGCUCAACACAGCGUGGGAAAGUGGCUGUGGCUAGACUGCC [A6U C23G] | 0.46 |

| Variant | self-cleavage |
| --- | --- |
| GGCAGAGCUCAACGCAGCAUGGCAAAGUGGCUGUGGCUAGACUGCC [A14G G19A] | 1.03 |
| GGCAGAGCUCAACACCGCGUGGCAAAGUGGCUGUCGCUAGACUGCC [A16C G35C] | 0.06 |
| GGCAGUGCUCAACAAAGCGUGGCAAAGUGGCUGUGGCUAGACUGCC [A6U C15A] | 0.16 |
| GGCAGAGCUCAACACAGCGUGGCAAAGCGGCUGUCGCUAGACUGCC [U28C G35C] | 0.13 |
| GGCAGAGGUCAACACAGCGUGGCAAAGUAGCUGUGGCUAGACUGCC [C8G G29A] | 0.06 |
| GGCGGAGCUCAACACAGCGUGGCAAAGUGGCUGCGGCUAGACUGCC [A4G U34C] | 0.12 |
| GGCAGAUCUCAACACAGCGUGGCAAAGUGGCUGUGGCUAGUCUGCC [G7U A41U] | 0.21 |
| GGCAGAGCUCAAUACAGCGUGGCACAGUGGCUGUGGCUAGACUGCC [C13U A25C] | 0.13 |
| GGCAGAGUUCAACACAGCGUGGCAAAGUGGCUGUGGCUACACUGCC [C8U G40C] | 0.13 |
| GGCAGAGCUCAACACAGCGUGGCAAAGUGGCUGUCGCUAGUCUGCC [G35C A41U] | 0.13 |
| GGCAGAGCUCAACACAGCGUGGCAAAGUUGCUGUGGCUAGACCGCC [G29U U43C] | 0.08 |
| GGCAGAGCUCAACACAUCGUGGCAAAGUGGCUGUGGUUAGACUGCC [G17U C37U] | 0.05 |
| GGCAGAGCUGAACACAGCGUGGCAAGGUGGCUGUGGCUAGACUGCC [C10G A26G] | 0.12 |
| CGCAGAGCUCAACACAGCGUGGCAAAGUGGCUGUGGUUAGACUGCC [G1C C37U] | 0.02 |
| GGCAGAGCUCAACACAGCCUGGCAAAGUGGCUGUGACUAGACUGCC [G19C G36A] | 0.09 |
| GGCAGAGCACAACACAGCGUGGCAAAGUGACUGUGGCUAGACUGCC [U9A G30A] | 0.18 |
| GGCAGAGCUGAACACAGCGUGGCAAAGUGGCUGUGGCUAGACUGCC [C10G] | 0.11 |
| GGCAGAGCUCACCACAGCGUGGGAAAGUGGCUGUGGCUAGACUGCC [A12C C23G] | 0.02 |
| GGCAGAGCUCAACACAGCGUGGCAAAGUGGCUGUUGCUAGACUGCC [G35U] | 0.16 |

| Variant | self-cleavage |
| --- | --- |
| GGCAGAGCUGAACACAGCGUGGCAAAGUGGCUGUGGAUAGACUGCC [C10G C37A] | 0.01 |
| GGCAGUGCUCAACACAGCGUGGCAAAGUGGCUGUGGCUAAACUGCC [A6U G40A] | 0.35 |
| GGCAGAGCUCAACAGAGCGUGGCAAAGUCGCUGUGGCUAGACUGCC [C15G G29C] | 0.1 |
| GGCAGAGCUCAACACAGCGUGGCAAAGUGCCUGCGGCUAGACUGCC [G30C U34C] | 0.12 |
| GGCAGAGCUCAACACUGCGUGGCAAAGUGGCGGUGGCUAGACUGCC [A16U U32G] | 0.29 |
| GGCAGAGCUCCACACAGCGUGGCAAAGUGGCUGUGGCCAGACUGCC [A11C U38C] | 0.04 |
| AGCAGAGCUCAACACAGAGUGGCAAAGUGGCUGUGGCUAGACUGCC [G1A C18A] | 1.81 |
| GGCAGAGCUCGCCACAGCGUGGCAAAGUGGCUGUGGCUAGACUGCC [A11G A12C] | 0.02 |
| GGCAGAGCUCAACACAGCGUUGCAAAGUGGCUGUGGCGAGACUGCC [G21U U38G] | 0.04 |
| GGCAGAUCUCCACACAGCGUGGCAAAGUGGCUGUGGCUAGACUGCC [G7U A11C] | 0.02 |
| GGCAGAGCUCCACACAGCGUGGCAAAGUGGCUGUGGCUAGACCGCC [A11C U43C] | 0.02 |
| GGCAGAGCUCAACACAGCGUAGCAAAGUGGCUGUGGGUAGACUGCC [G21A C37G] | 0.04 |
| GGCAGAGCUCAACACAGCGUGGCAAAGUGGCUGUGGCUACAUUGCC [G40C C42U] | 0.07 |
| GGCAGAGCUCAACACAGCGUGCCAAAGUGGCUGUGGCUAGGCUGCC [G22C A41G] | 0.23 |
| GGCAGAGCUCAACACAGGGUGGCAAAGUGGCUGUGGCUAGCCUGCC [C18G A41C] | 0.03 |
| GGCAGAGCUCAACACAGCGGGGCAAAGUGGCUGUGGCUAGAGUGCC [U20G C42G] | 0.14 |
| GGCAGAGCUCAACACAGCGUGCCAAAGUGGCUGUGGCUAGACCGCC [G22C U43C] | 0.06 |
| GGCAGAGCUCAACACAGUGUGGCAAAGUGGCUGUGGCUAUACUGCC [C18U G40U] | 0.12 |
